± gives the half width of the 95% confidence interval.
Legend:
[1] = folding stability dG unfold from chymotrypsin proteolysis; higher = more stable
Method in brief: (§1)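 Unfolding free energy was derived, per protease or combined, by relating Bayesian-fitted K50 values from sequencing counts to a sequence-predicted unfolded-state K50 and a shared folded-state K50. The underlying digests exposed cysteine-free mini-proteins under 80 residues, in a PA-tagged cDNA display construct, to trypsin and chymotrypsin at 11 threefold-diluted concentrations and to a no-protease condition. A filter kept only designs with AlphaFold2 dimer inter-PAE above 15.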

[2] = folding stability dG unfold from trypsin proteolysis; higher = more stable
Method in brief: as §1

[3] = folding stability dG unfold (combined trypsin and chymotrypsin); higher = more stable
Method in brief: as §1

Sequence | folding stability dG unfold [1] | folding stability dG unfold [2] | folding stability dG unfold [3]
SAGGSAGGSAGGWIRNKDGKPVKLEIYPFPVEMWMYRKKPDGGWEPHPMRMPFTFIRITPSAGGSAGGSAGG [r7_90_TrROS] | 1.55 ± 0.11 kcal/mol | 1.59 ± 0.049 kcal/mol | 1.65 ± 0.11 kcal/mol
SAGGSAGGSAGGWYIYFPNHYYPIKKITINPGGNIEIEFPNGNERTFDNVSIMPPGQEISAGGSAGGSAGGS [r10_1151_TrROS] | 0.105 ± 0.14 kcal/mol | 0.178 ± 0.047 kcal/mol | 0.219 ± 0.097 kcal/mol
SAGGSAGGSAGGYFIRINNGRTFPFPSPEDAEEIVKTIARPFGHPDMTIEIYRMPPEQFPSAGGSAGGSAGG [r7_839_TrROS] | -0.1 ± 0.24 kcal/mol | -0.0675 ± 0.22 kcal/mol | 0.0194 ± 0.18 kcal/mol
SAGGSAGGSAGGYIEIVFAHPDPEPGYKYAMVMEIQMDPPGNMEMNIRVIKDPEDAKEAFSAGGSAGGSAGG [r11_792_TrROS] | 1.43 ± 0.067 kcal/mol | 1.35 ± 0.12 kcal/mol | 1.41 ± 0.19 kcal/mol
SAGGSAGGSAGHMVKVKITKSKGGSSLPLEEKEIELDIDEEKLEELKEEAKKKGYTVEIESAGGSAGGSAGG [r17_18_JUSTAS] | 0.0362 ± 0.15 kcal/mol | 0.0424 ± 0.11 kcal/mol | -0.0397 ± 0.26 kcal/mol
SAGGSAGGSAGHRSVMVTVDDIAKENGIKIPPGSYLMVTVEGNKVKDIMIQPMKPKPEDPSAGGSAGGSAGG [r11_616_TrROS] | -0.0198 ± 0.24 kcal/mol | -0.499 ± 0.44 kcal/mol | -0.17 ± 0.18 kcal/mol
SAGGSAGGSAGIEIELNGKPVTIHPNPDGYYRVRFPGPGKSILIPGMPPDDIKDFAKELLSAGGSAGGSAGG [r11_1085_TrROS] | 0.137 ± 0.15 kcal/mol | -0.161 ± 0.15 kcal/mol | 0.0206 ± 0.1 kcal/mol
SAGGSAGGSAGIEIHVMEDPDGRWWLMITIKVKYKVRNPEDGDPIFEFEVTYTIMIWLKASAGGSAGGSAGG [r17_124_TrROS] | 5.9 ± 0.17 kcal/mol | 4.3 ± 0.24 kcal/mol | > 6 kcal/mol
SAGGSAGGSAGIKIPPGQKLSIEENPDGNMEIKFPDPGQKFTIPPNAPIEVDPNNWIYIKSAGGSAGGSAGG [r17_49_TrROS] | 0.0738 ± 0.4 kcal/mol | 0.00801 ± 0.33 kcal/mol | 0.181 ± 0.33 kcal/mol
SAGGSAGGSAGIPLGPDGGLIVTEGPDGPVEERLFASPEEARRWIEEHLPEGWRVVFRPLSAGGSAGGSAGG [r11_983_TrMRF] | 1.6 ± 0.13 kcal/mol | 1.15 ± 0.017 kcal/mol | 1.47 ± 0.058 kcal/mol
SAGGSAGGSAGIRLDSLEEALKYIRKNFPPGRTVEIRVYDGDKPVEITVQVDENGDIKIVSAGGSAGGSAGG [r17_69_TrROS] | 3.227 ± 0.02 kcal/mol | 2.91 ± 0.15 kcal/mol | 3.19 ± 0.092 kcal/mol
SAGGSAGGSAGKAKIVKIEKVKNKNGETYYIIKLEGKKEIFVIKDKNGKKKKIPLKELKPSAGGSAGGSAGG [r17_286_TrROS_Hall] | 2.37 ± 0.026 kcal/mol | 1.42 ± 0.043 kcal/mol | 2.11 ± 0.048 kcal/mol
SAGGSAGGSAGKEYIVRITLPNGKVYEFPGKLEDVVKALPPEYKDAVIEVFDPRTGKRVSSAGGSAGGSAGG [r11_353_TrMRF] | 4.26 ± 0.057 kcal/mol | 2.53 ± 0.049 kcal/mol | 3.84 ± 0.089 kcal/mol
SAGGSAGGSAGKEYYVVAKVEDPSTGKVTVYVGPFSDFVKTFDPKNSKVEFFLVEKDALKSAGGSAGGSAGG [r11_334_TrMRF] | 3.31 ± 0.044 kcal/mol | 1.87 ± 0.073 kcal/mol | 2.89 ± 0.077 kcal/mol
SAGGSAGGSAGKIDPKDIEKVEFEIDEESGKGKAFVILKNGEPAEIEFSSIEEAIKALLGSAGGSAGGSAGG [r11_339_TrMRF] | 0.981 ± 0.14 kcal/mol | 1.93 ± 0.099 kcal/mol | 1.37 ± 0.16 kcal/mol
SAGGSAGGSAGKIEIIKDKKNGKYTVKIRNKDGEEIEIEVDSLEELEELAKKLNIEVEVESAGGSAGGSAGG [r11_1049_TrROS_Hall] | 3.4 ± 0.21 kcal/mol | 2.33 ± 0.16 kcal/mol | 3.18 ± 0.15 kcal/mol
SAGGSAGGSAGKIEIKVVKKTPNYVYYEIRFEETKKTIIVKAKSKEDAEEAAKKLLKELKSAGGSAGGSAGG [r11_848_TrROS_Hall] | 2.88 ± 0.062 kcal/mol | 2.31 ± 0.099 kcal/mol | 2.62 ± 0.17 kcal/mol
SAGGSAGGSAGKIEIYPNDNQYYIKITVPRRNPNNGKWERQERTIPMPPDQAKELLKNGISAGGSAGGSAGG [r11_389_TrROS] | -0.439 ± 0.45 kcal/mol | 0.0667 ± 0.14 kcal/mol | -0.17 ± 0.3 kcal/mol

Source: the supplement of paper PMC12764529
